What was measured:
[1] = test system: HCT116 cells transduced with the constructs; assay: Response to Sildenafil, GFP expression by flow cytometry in HCT116; assay type: cell-based, human; conditions: for MFI / Stabilization ratio with Sildenafil: 48 hours, HCT116
Method: Similar experiments were performed in HCT116 cells using sildenafil. The above-mentioned DDs were cloned as AcGFP fusion into pELNS vector carrying mCherry marker and packaged in lentiviral vectors. HCT116 cells were transduced with the constructs and stable integrants were selected by cell sorting using mCherry marker. Cells were treated with sildenafil at the following μM concentrations: 0.01, 0.02, 0.05, 0.14, 0.41, 1.23, 3.7, 11.11, 33.33, and 100 for a duration of 48 hours. The fluorescence was analyzed by flow cytometry and the mean fluorescence intensity was calculated for all samples. […] The stabilization ratios are shown in Table 24 and Table 25 and the basal expression is show in Table 26.

[2] = test system: HCT 116 cells transduced with the PDE5A DD derived GFP constructs; assay: Response to Vardenafil, GFP expression by FACS in HCT116; assay type: cell-based, human; conditions: for MFI / Stabilization ratio with Vardenafil: 48 hours, HCT116
Method: Mutations were created in PDE5A (535-860) catalytic domain using site directed mutagenesis and the mutants were cloned as AcGFP fusion into pELNS vector carrying mCherry marker and packaged in lentiviral vectors. HCT116 cells were transduced with the constructs and stable integrants were selected by cell sorting using mCherry marker. Cells were treated with vehicle (dimethyl sulfoxide, DMSO) or 10 μM Vardenafil (VDF) for 48 hours. Following the treatment, cells were analyzed for GFP expression using FACS. Basal expression was calculated as the ratio of GFP signal in the absence of ligand for a given cell line to auto fluorescence of parental HCT-116 cells. Stabilization ratio was calculated as the ratio of the GFP signal observed in the presence of stabilizing ligand to the signal from the same cell line in the absence of ligand.
HCT 116 cells transduced with the PDE5A DD derived GFP constructs were also tested with increasing doses of Vardenafil. The HCT116 cells were incubated for 48 hours with Vardenafil starting at a dose of 0.002 μM to 30 μM. The GFP intensity of the Vardenafil treated samples was compared to the parental untransduced HCT116 and DMSO treated cells for each construct. The mean fluorescence intensity was calculated for each sample and used to calculate the stabilization ratios as well as the basal expression for each construct. The GFP expression was measured using flow cytometry and the mean fluorescence intensity (MFI) was calculated for each sample. The stabilization ratios are shown in Table 13 and Table 14 and the basal expression is show in Table 15.

B1: PDE5AC (#42): AcGFP fused to C-terminal DD 535-860 of PDE5A (E535D, K555R, F564S, Q589R, K630R, C677R, N742S, I799T, M816A), SEQ ID NO. 28 (protein)
chain: DETRELQSLAAAVVPSAQTLRITDFSFSDSELSDLETALCTIRMFTDLNLVQNFRMKHEVLCRWILSVKKNYRKNVAYHNWRHAFNTAQCMFAALRAGKIQNKLTDLEILALLIAALSHDLDHRGVNNSYIQRSEHPLAQLYRHSIMEHHHFDQCLMILNSPGNQILSGLSIEEYKTTLKIIKQAILATDLALYIKRRGEFFELIRKSQFNLEDPHQKELFLAMLMTACDLSAITKPWPIQQRIAELVATEFFDQGDRERKELNTEPTDLMNREKKNKIPSAQVGFIDAICLQLYEALTHVSEDCFPLLDGCRKNRQKWQALAEQQ
modifications: /note=“Description of Artificial Sequence Synthetic Destabilizing Domain (DD)”
In the case of B1, the MFI ([1]; DMSO (no Sildenafil)) is reported as 23943, the “Stabilization ratio with Sildenafil” value ([1]; Sildenafil 0.01 μM vs DMSO) is reported as 1.0 and the MFI ([1]; Sildenafil 0.01 μM) is reported as 23295. For the same molecule, the “Stabilization ratio with Sildenafil” value ([1]; Sildenafil 0.02 μM vs DMSO) was 1.0, the MFI ([1]; Sildenafil 0.02 μM) was 23606 and the “Stabilization ratio with Sildenafil” value ([1]; Sildenafil 0.05 μM vs DMSO) was 1.0. The MFI ([1]; Sildenafil 0.05 μM) was 24817, the “Stabilization ratio with Sildenafil” value ([1]; Sildenafil 0.14 μM vs DMSO) was 1.2 and the MFI ([1]; Sildenafil 0.14 μM) was 29495. The “Stabilization ratio with Sildenafil” value ([1]; Sildenafil 0.41 μM vs DMSO) was 1.7, the MFI ([1]; Sildenafil 0.41 μM) was 40817 and the “Stabilization ratio with Sildenafil” value ([1]; Sildenafil 1.23 μM vs DMSO) was 2.6. The MFI ([1]; Sildenafil 1.23 μM) was 63410, the “Stabilization ratio with Sildenafil” value ([1]; Sildenafil 3.70 μM vs DMSO) was 3.8 and the MFI ([1]; Sildenafil 3.70 μM) was 91798. For the same molecule, the “Stabilization ratio with Sildenafil” value ([1]; Sildenafil 11.11 μM vs DMSO) was 5.3, the MFI ([1]; Sildenafil 11.11 μM) was 127187 and the “Stabilization ratio with Sildenafil” value ([1]; Sildenafil 33.33 μM vs DMSO) was 6.3. The MFI ([1]; Sildenafil 33.33 μM) was 149906, the “Stabilization ratio with Sildenafil” value ([1]; Sildenafil 100.00 μM vs DMSO) was 6.9 and the MFI ([1]; Sildenafil 100.00 μM) was 164269. For the same molecule, the Basal expression ([1]; Table 26, MFI with DMSO / parental HCT116, Sildenafil experiment) was 18.6, the MFI ([2]; DMSO (no Vardenafil)) was 25111 and the “Basal (DMSO/Parental)” value ([2]; Table 10, GFP signal without ligand / auto fluorescence of parental HCT-116) was 20.0. The Basal ([2]; Table 15, MFI with DMSO / parental HCT116, Vardenafil experiment) was 12.85, the “Stabilization ratio with Vardenafil” value ([2]; Vardenafil 0.002 μM vs DMSO) was 1.0 and the MFI ([2]; Vardenafil 0.002 μM) was 25236. For the same molecule, the MFI ([2]; Vardenafil 0.005 μM) was 28309, the “Stabilization ratio with Vardenafil” value ([2]; Vardenafil 0.014 μM vs DMSO) was 1.4 and the MFI ([2]; Vardenafil 0.014 μM) was 33958. The “Stabilization ratio with Vardenafil” value ([2]; Vardenafil 0.041 μM vs DMSO) was 1.9, the MFI ([2]; Vardenafil 0.041 μM) was 46882 and the “Stabilization ratio with Vardenafil” value ([2]; Vardenafil 0.123 μM vs DMSO) was 3.2. For the same molecule, the MFI ([2]; Vardenafil 0.123 μM) was 81233, the “Stabilization ratio with Vardenafil” value ([2]; Vardenafil 0.370 μM vs DMSO) was 4.6 and the MFI ([2]; Vardenafil 0.370 μM) was 114847. The “Stabilization ratio with Vardenafil” value ([2]; Vardenafil 1.111 μM vs DMSO) was 5.4, the MFI ([2]; Vardenafil 1.111 μM) was 136303 and the “Stabilization ratio with Vardenafil” value ([2]; Vardenafil 3.333 μM vs DMSO) was 5.9. The MFI ([2]; Vardenafil 3.333 μM) was 147512, the “Stabilization ratio with Vardenafil” value ([2]; Vardenafil 10 μM vs DMSO) was 6.4 and the MFI ([2]; Vardenafil 10 μM) was 161587. The “Stabilization ratio with Vardenafil” value ([2]; Vardenafil 30 μM vs DMSO) was 8.0 and the MFI ([2]; Vardenafil 30 μM) was 199877.

From patent US11891634B2, “PDE5A destabilizing domains” (The Board of Trustees of the Leland Stanford Junior …, priority 2017, dated 2024)
